Data reported in patent US20220411483A1 (Chugai, published 2022).
Numbering of substitutions follows the chain as printed. Each block holds one binder with its values, some of them ahead of it.

Experiments:
FcgRIIb = target: T1, FcgRIIb (human, UniProt P31994 43-217); experiment: SPR, amount bound per captured antibody
T1 construct: extracellular domain; also called FcγRIIb
T1 sequence (looked up): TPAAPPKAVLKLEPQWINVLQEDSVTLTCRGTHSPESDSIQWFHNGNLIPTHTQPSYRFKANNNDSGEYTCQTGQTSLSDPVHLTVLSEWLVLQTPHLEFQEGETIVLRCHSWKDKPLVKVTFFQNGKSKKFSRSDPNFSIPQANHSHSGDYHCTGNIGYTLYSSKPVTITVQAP

FcgRIIaR = target: T2, FcgRIIaR (human, UniProt P12318 34-217); experiment: SPR, amount bound per captured antibody
T2 construct: extracellular domain; also called FcγRIIa R type; FcγRIIa (R type)
T2 sequence (looked up): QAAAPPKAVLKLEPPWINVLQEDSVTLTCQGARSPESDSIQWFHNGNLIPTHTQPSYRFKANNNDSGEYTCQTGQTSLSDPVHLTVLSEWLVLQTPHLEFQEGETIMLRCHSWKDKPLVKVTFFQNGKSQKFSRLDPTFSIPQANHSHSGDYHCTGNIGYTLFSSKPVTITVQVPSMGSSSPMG

Relative FcgRIIb-binding Activity (FcgRIIb): 6.9 IL6R-G1d/IL6R-L=100
Relative FcgRIIaR-binding Activity (FcgRIIaR): 2.9 IL6R-G1d/IL6R-L=100
B2: IL6R-P649/IL6R-L (antibody, human IgG1, kappa)
heavy: QVQLQESGPGLVKPSETLSLTCAVSGHSISHDHAWSWVRQPPGEGLEWIGFISYSGITNYNPSLQGRVTISRDNSKNTLYLQMNSLRAEDTAVYYCARSLARTTAMDYWGEGTLVTVSSASTKGPSVFPLAPSSKSTSGGTAALGCLVKDYFPEPVTVSWNSGALTSGVHTFPAVLQSSGLYSLSSVVTVPSSSLGTQTYICNVNHKPSNTKVDKKVEPKSCDKTHTCPPCPAPDLLGDDSVFLFPPKPKDTLMISRTPEVTCVVIVVAEEDGEVKFNWYVDGVEVHNAKTKPREEQDNSTYRVVSVLTVLHQDWLNGKEYKCKVSNKALPRPIEKTISKAKGQPREPQVYTLPPSRDELTKNQVSLTCLVKGFYPSDIAVEWESNGQPENNYKTTPMVLDSDGSFFLYSKLTVDKSRWQQGNVFSCSVMHEALHNHYTQKSLSLSP
light: not shown

Relative FcgRIIb-binding Activity (FcgRIIb): 175 IL6R-G1d/IL6R-L=100
Relative FcgRIIaR-binding Activity (FcgRIIaR): 72.5 IL6R-G1d/IL6R-L=100
B3: IL6R-P646/IL6R-L (antibody, human IgG1, kappa)
heavy: B2 heavy with V267N
light: not shown

Relative FcgRIIb-binding Activity (FcgRIIb): 15.2 IL6R-G1d/IL6R-L=100
Relative FcgRIIaR-binding Activity (FcgRIIaR): 5.6 IL6R-G1d/IL6R-L=100
B5: IL6R-P647/IL6R-L (antibody, human IgG1, kappa)
heavy: B2 heavy with V267R
light: not shown

Relative FcgRIIb-binding Activity (FcgRIIb): 168 IL6R-G1d/IL6R-L=100
Relative FcgRIIaR-binding Activity (FcgRIIaR): 75.7 IL6R-G1d/IL6R-L=100
B8: IL6R-P651/IL6R-L (antibody, human IgG1, kappa)
heavy: B2 heavy with V267D, A269R
light: not shown

Relative FcgRIIb-binding Activity (FcgRIIb): 171 IL6R-G1d/IL6R-L=100
Relative FcgRIIaR-binding Activity (FcgRIIaR): 34 IL6R-G1d/IL6R-L=100
B10: IL6R-P644/IL6R-L (antibody, human IgG1, kappa)
heavy: B2 heavy with D239K, V267D
light: not shown

Relative FcgRIIb-binding Activity (FcgRIIb): 152 IL6R-G1d/IL6R-L=100
Relative FcgRIIaR-binding Activity (FcgRIIaR): 40.3 IL6R-G1d/IL6R-L=100
B11: IL6R-P648/IL6R-L (antibody, human IgG1, kappa)
heavy: B2 heavy with V267S
light: not shown

Relative FcgRIIb-binding Activity (FcgRIIb): 13.7 IL6R-G1d/IL6R-L=100
Relative FcgRIIaR-binding Activity (FcgRIIaR): 5.2 IL6R-G1d/IL6R-L=100
B13: IL6R-P645/IL6R-L (antibody, human IgG1, kappa)
heavy: B2 heavy with V267K
light: not shown

Relative FcgRIIb-binding Activity (FcgRIIb): 155 IL6R-G1d/IL6R-L=100
Relative FcgRIIaR-binding Activity (FcgRIIaR): 41.6 IL6R-G1d/IL6R-L=100
B15: IL6R-P650/IL6R-L (antibody, human IgG1, kappa)
heavy: B2 heavy with V267D, A269K
light: not shown

Further lines, the binder ahead of its results:

B1: IL6R-P634/IL6R-L (antibody, human IgG1, kappa)
heavy: B2 heavy with D239G, D298Y, R332A, M398P
light: not shown
Relative FcgRIIb-binding Activity (FcgRIIb): 6.5 IL6R-G1d/IL6R-L=100
Relative FcgRIIaR-binding Activity (FcgRIIaR): 2.8 IL6R-G1d/IL6R-L=100

B4: IL6R-P643/IL6R-L (antibody, human IgG1, kappa)
heavy: B2 heavy with D239R, V267D
light: not shown
Relative FcgRIIb-binding Activity (FcgRIIb): 178 IL6R-G1d/IL6R-L=100
Relative FcgRIIaR-binding Activity (FcgRIIaR): 58.7 IL6R-G1d/IL6R-L=100

B6: IL6R-P635/IL6R-L (antibody, human IgG1, kappa)
heavy: B2 heavy with D239G, V267D, A269K, D298Y, R332A, M398P
light: not shown
Relative FcgRIIb-binding Activity (FcgRIIb): 71.9 IL6R-G1d/IL6R-L=100
Relative FcgRIIaR-binding Activity (FcgRIIaR): 6.4 IL6R-G1d/IL6R-L=100

B7: IL6R-P639/IL6R-L (antibody, human IgG1, kappa)
heavy: B2 heavy with L236N, V267D
light: not shown
Relative FcgRIIb-binding Activity (FcgRIIb): 184 IL6R-G1d/IL6R-L=100
Relative FcgRIIaR-binding Activity (FcgRIIaR): 109 IL6R-G1d/IL6R-L=100

B9: IL6R-P640/IL6R-L (antibody, human IgG1, kappa)
heavy: B2 heavy with L236K, V267D
light: not shown
Relative FcgRIIb-binding Activity (FcgRIIb): 178 IL6R-G1d/IL6R-L=100
Relative FcgRIIaR-binding Activity (FcgRIIaR): 75.1 IL6R-G1d/IL6R-L=100

B12: IL6R-P638/IL6R-L (antibody, human IgG1, kappa)
heavy: B2 heavy with L236H, V267D
light: not shown
Relative FcgRIIb-binding Activity (FcgRIIb): 176 IL6R-G1d/IL6R-L=100
Relative FcgRIIaR-binding Activity (FcgRIIaR): 78.3 IL6R-G1d/IL6R-L=100

B14: IL6R-P642/IL6R-L (antibody, human IgG1, kappa)
heavy: B2 heavy with G238Q, V267D
light: not shown
Relative FcgRIIb-binding Activity (FcgRIIb): 175 IL6R-G1d/IL6R-L=100
Relative FcgRIIaR-binding Activity (FcgRIIaR): 103 IL6R-G1d/IL6R-L=100

B16: IL6R-P641/IL6R-L (antibody, human IgG1, kappa)
heavy: B2 heavy with L236R, V267D
light: not shown
Relative FcgRIIb-binding Activity (FcgRIIb): 170 IL6R-G1d/IL6R-L=100
Relative FcgRIIaR-binding Activity (FcgRIIaR): 61.5 IL6R-G1d/IL6R-L=100
